Assay results: PMC3733117

Target: DNA polymerase beta I260Q (rat, UniProt P06766 1-335, I260Q)
Assay: X-ray crystallography

B1: cocrystallization primer/template (dsDNA)
DNA 1: ATGTGAG
DNA 2: CAAACTCACAT
B1: binds.
